Measured values taken from publication PMC10163345 (Journal of Cell Science, 2023).
Where no end group is shown, it is not given here.

Biological target: T1, constitutively active truncated His-tagged WT calcineurin (6×His–CNAαWT:CNB) (human | , UniProt Q08209 1-392; P63098 1-170)
T1 construct: human CNAα (PPP3CA), truncated at residue 392, WT; calcineurin B subunit (PPP3R1, amino acids 1–170), expressed in tandem with CNAα; p11 vector (PSI:Biology-Materials Repository); held on His-tag Dynabeads in the pull-down; also called CNWT; source: E. coli BL21 (DE3), purified (Ni-NTA agarose, dialysed)
Experiment: pull-down; 1–2 μg 6×His-tagged CN bound to His-Tag Dynabeads; 7–10 μg purified GST-tagged peptide added, 2 h at 4°C; 50 mM Tris-HCl pH 7.5, 150 mM NaCl, 0.1% Tween 20, 1 mM β-mercaptoethanol, 15 mM imidazole, 0.5 mg/ml BSA; immunoblot
Conditions: both partners purified

T1 sequence (Q08209 1-392, chain 1 of 2): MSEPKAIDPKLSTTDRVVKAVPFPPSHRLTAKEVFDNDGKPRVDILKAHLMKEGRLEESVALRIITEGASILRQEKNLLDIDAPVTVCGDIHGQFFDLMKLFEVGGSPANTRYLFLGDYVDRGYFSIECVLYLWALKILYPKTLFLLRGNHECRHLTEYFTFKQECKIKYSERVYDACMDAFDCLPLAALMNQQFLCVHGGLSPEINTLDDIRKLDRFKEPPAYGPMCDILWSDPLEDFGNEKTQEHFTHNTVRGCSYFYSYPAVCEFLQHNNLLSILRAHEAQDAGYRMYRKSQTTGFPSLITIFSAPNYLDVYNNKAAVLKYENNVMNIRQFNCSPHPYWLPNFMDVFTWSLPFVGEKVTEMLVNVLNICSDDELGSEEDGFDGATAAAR
T1 sequence (P63098 whole entry, chain 2 of 2, the tested form may be a part): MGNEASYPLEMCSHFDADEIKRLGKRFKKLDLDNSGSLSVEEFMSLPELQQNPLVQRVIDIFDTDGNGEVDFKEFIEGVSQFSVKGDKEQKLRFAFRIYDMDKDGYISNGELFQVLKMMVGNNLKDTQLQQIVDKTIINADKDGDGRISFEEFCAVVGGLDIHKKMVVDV

binding result: binds
B1: GST-tagged POC5 PxIxIT peptide (POC5 PDVRIS) (peptide)
chain: KGELVPDVRISTIHDI
modifications: also: GST-tagged
notes: 16mer of human POC5 with the PxIxIT motif PDVRIS (residues 35–40 of Q8NA72-3) in the centre; pGEX-4T-3 vector; also called WT POC5 peptide; source: E. coli BL21 (DE3), purified (Glutathione Sepharose 4B, dialysed)
